Square brackets hold non-standard residues; d marks the D form. Ends that are not written are not given here. Pro(13C,15N) = 13C, 15N isotope-labelled Pro; pS = N[C@@H](COP(=O)(O)O)C(=O)O
Biological target: T1, 13C, 15N-enriched PIN1 (NMR sample) (human, UniProt Q13526 1-163, 13C, 15N-enriched)
T1 construct: PIN1, human; resonances of both the WW and the PPIase domain were followed; also called 15N-labeled PIN1
Assay: NMR titration; series of 2D HSQC spectra of 0.1 mM 13C, 15N-enriched PIN1 titrated with the CDH1 phosphopeptide; 25 °C, pH 6.6, 20 mM potassium phosphate, 100 mM NaSO4, 10% D2O; chemical shift perturbation
Conditions: both partners purified

T1 sequence (Q13526 whole entry, the tested form may be a part): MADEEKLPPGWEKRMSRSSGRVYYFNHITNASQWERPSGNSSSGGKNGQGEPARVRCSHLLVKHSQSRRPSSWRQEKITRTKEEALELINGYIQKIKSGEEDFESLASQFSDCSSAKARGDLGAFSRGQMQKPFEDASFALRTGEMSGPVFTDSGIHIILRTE

B1: CDH1-pS163 peptide (peptide)
peptide: LR[pS][Pro(13C,15N)]RKPTRKISKIPFKVLDAPE
notes: CDH1 (FZR1), human, residues 161-183; also called CDH1 phosphopeptide; phosphorylated peptide; source: synthetic peptide, bought: Pepmic
binding result: binds

Source: article PMC11018817, “Reciprocal antagonism of PIN1-APC/C^CDH1 governs mitotic protein stability and cell cycle entry” (Nature Communications, 2024)
